Square brackets hold non-standard residues; d marks the D form. cellulose membrane = cellulose membrane solid support, attached through a beta-alanine spacer; sY = N[C@@H](Cc1ccc(OS(=O)(=O)O)cc1)C(=O)O; βAla = NCCC(=O)O

In assay [1] the target is T1, fully sulfated and glycosylated human PSGL-1 19.ek.Fc fusion protein (human, not fully specified; sulfated tyrosines (y in QATEyEyLDyDFLPETEPPRPMMDDDDK, corresponding to Tyr46, Tyr48 and Tyr51); SLe^x-capped O-glycan; biotinylated in the assays).
T1 construct: also called PSGL-19.ek.Fc; biotinylated PSGL-1 19.ek.Fc
T1 chain: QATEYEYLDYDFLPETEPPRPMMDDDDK
The assay is described as follows: BIAcore 2000, biotinylated PSGL-1 19.ek.Fc on streptavidin chip, antibody injected at 0-100 nM. The protocol:
Surface plasmon resonance binding analysis. A BIAcore 2000 instrument (BIAcore AB, Uppsala, Sweden) was used to analyze the interactions between the identified antibodies and biotinylated PSGL-1 19.ek.Fc or derived peptides. Binding experiments were performed at 25° C. using streptavidin-coated sensor chips (BIAcore) and HBS-P buffer (20 mM HEPES [pH 7.4], 150 mM NaCl and 0.005% polysorbate 20 v/v) adjusted to 1 mM for both CaCl₂ and MgCl₂. The streptavidin on the sensor surfaces were condition with three one-minute injections of a solution containing 1 M NaCl and 25 mM NaOH. The chips were regenerated with 5 μL of 0.1% TFA and equilibrated with running buffer. […] Binding kinetics were analyzed using BIAevaluation software (V2.1; Pharmacia Biosensor, Uppsala, Sweden). The response representing the mass of bound monoclonal antibodies was measured in resonance units (RU). […] Binding kinetics of human anti-PSGL-1 monoclonal antibodies to the immobilized PSGL-1 19.ek.Fc was determined under partial mass transport limitations by triplicate injections at a concentration range (0-100 nM) onto the immobilized biotinlylated PSGL-1 19.ek peptide at a flow rate of 30 μL/min, following injection for two minutes. Dissociation was monitored for ten minutes at the same flow rate.
Background: Surface plasmon resonance follows binding to a sensor surface in real time, without labels.

Assay [2] concerns the target T2, peptide EYEYLDyDF (SEQ ID NO:45) (human).
T2 construct: Spot 55 of the peptide array; also called peptide 55
T2 peptide: Ac-EYEYLD[sY]DF-{βAla-cellulose membrane}
As to the kind of experiment: peptide spot array on cellulose membrane, HRP anti-Fc detection. An excerpt: Epitope mapping of PSG3. Fmoc-protected amino acids and cellulose membranes modified with polyethylene glycol were purchased from Intavis. Fmoc-protected β-alanine was purchased from Chem-Impex (Wood Dale, Ill.). The arrays were defined on the membranes by coupling a β-alanine spacer, followed by elongation of the peptide chain. Peptides were synthesized using standard DIC/HOBt coupling chemistry as described previously. (See, e.g., Molina et al., Pept. Res. 9:151-155 (1996) and Frank et al., Tetrahedron 48:9217-9232 (1992)). Activated amino acids were spotted using an Abimed ASP 222 robot. Washing and deprotection steps were done manually and the peptides were N-terminally acetylated after the final synthesis cycle.
Following peptide synthesis and side chain deprotection, the membranes were washed in methanol for 10 minutes and in blocker (1% casein in TBS) for 10 minutes. The membranes were then incubated with 1 μg/mL of […] in TBS for 1 hour with gentle shaking. The membranes were washed 4 times for 2 minutes in TBS and then probed with an HRP-conjugated anti-Fc antibody in blocker. After washing with TBS, bound protein was visualized using SuperSignal West reagent (Pierce) and a digital camera (AlphaInnotech FluorImager). Signal intensity reflects the amount of protein bound at each spot.

Assay [3] concerns the target T3, human PSGL-1 on cells (human, UniProt Q14242 42-412).
T3 construct: whole, on cells; One molecule is used for HL-60 cells, recombinant CHO cells and blood cells; The cell type is named in each entry; also called native PSGL-1 expressed on HL-60 cells; recombinant CHO cells expressing human PSGL-1
T3 sequence (looked up): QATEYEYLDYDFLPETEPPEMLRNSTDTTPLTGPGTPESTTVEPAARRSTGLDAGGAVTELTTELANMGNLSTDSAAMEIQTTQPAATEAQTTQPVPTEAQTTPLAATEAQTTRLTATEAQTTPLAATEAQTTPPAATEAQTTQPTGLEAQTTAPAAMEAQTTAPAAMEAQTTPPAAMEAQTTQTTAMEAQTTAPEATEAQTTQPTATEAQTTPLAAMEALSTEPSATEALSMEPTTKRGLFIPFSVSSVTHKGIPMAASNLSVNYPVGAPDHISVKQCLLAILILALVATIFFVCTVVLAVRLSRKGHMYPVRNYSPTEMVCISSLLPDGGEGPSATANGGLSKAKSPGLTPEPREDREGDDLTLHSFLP
The assay is described as follows: FACS on recombinant CHO cells expressing human PSGL-1 (data not shown).

Assay [4] concerns the target T3, human PSGL-1 on cells. As to the kind of experiment: FACS on HL-60 cells, scFv complexed with mouse anti-Myc, FITC secondary. Here is the method:
Characterization of the antibodies using FACS analysis. The binding specificity of the neutralizing antibodies was assessed by FACS analysis of HL-60 cells as well as in parent and recombinant CHO cells expressing human or rat PSGL-1 (data not shown). For FACS analysis, 0.5×10⁶ cells were incubated in 100 μL HBSS 2 mM CaCl₂, 1% fetal calf serum, NaN₃, containing 15 or 50 μg of the indicated scFvs complexed with 50 μg/ml mouse-anti-Myc-HRP (Roche Applied Sciences, Indianapolis, Ind.). The cells were washed and incubated with 1:100 anti-mouse FITC-conjugated secondary antibody (Roche Applied Sciences, Indianapolis, Ind.). Analysis was performed on viable cells of the mononuclear population with low forward and side scatter properties. As shown in FIG. 7(A) and FIG. 7(B), PSG3, PSG5, and PSG6 scFvs bind to native PSGL-1 expressed on HL-60 cells.

B1: PSG3 full-length bivalent antibody (human IgG4, lambda) (antibody, V domains shown)
VH: QVQLVQSGAEVKKPGSSVRVSCKASGGSFSSYGIHWVQQAPGQGLEWMGRIIPVLRIRNYAQKFHDRVTIDADTSTGTAYMELSSLTSDDTAVYYCAGSRQGVAPTGYWGQGTMVTVSS
VL: QAVLTQPSSLSASPGASASLTCNLRSGIDVGTYRIYWYQQKPGSPPQYLLRYKSDSDKQQGSGVPSRFSGTKDASANAGILLISGLQSEDEADYYCMIWHSNGWVFGGGTKLTVLG
notes: also called full length PSG3; human monoclonal antibody PSG3
Molecule B1 displayed a Ka in assay [1] of roughly 1.4e+09 M⁻¹. For the same molecule, the binding result (in assay [2]; in the assay with human PSGL-1 on cells [3]) was “binds” each time.

B2: PSG6 full-length bivalent antibody (human IgG4, lambda) (antibody, V domains shown)
VH: EVQLLESGGGLVRPGGSLRLSCAASGFTFSSYAMSWVRQAPGKGLEWVSAISGSGGSTYYADSVKGRFTISRDNSKNTLYLQMNSLRAEDTAVYYCARDKRLTYWGQGTMVTVSS
VL: QSVVTQPPSVSAAPGQKVTISCSGSSSNIGNNYVSWYQQLPGTAPKLLIYDNNKRPSGIPDRFSGSKSGTSATLGITGLQTGDEADYYCGTWDSSLSARVFGGGTKVTVLG
notes: also called human monoclonal antibody PSG6
B2 displayed a Ka in assay [1] of roughly 6e+08 M⁻¹. The binding result in the assay with human PSGL-1 on cells [3] is listed as “binds”.

B3: PSG6 scFv (scFv)
scFv: EVQLLESGGGLVRPGGSLRLSCAASGFTFSSYAMSWVRQAPGKGLEWVSAISGSGGSTYYADSVKGRFTISRDNSKNTLYLQMNSLRAEDTAVYYCARDKRLTYWGQGTMVTVSSGGGGSGGGGSGGGGSAQSVVTQPPSVSAAPGQKVTISCSGSSSNIGNNYVSWYQQLPGTAPKLLIYDNNKRPSGIPDRFSGSKSGTSATLGITGLQTGDEADYYCGTWDSSLSARVFGGGTKVTVLGAAAHHHHHH
notes: Human scFv from a phage display library, purified on NiNTA and detected with anti-Myc; also called scFv PSG6
With B3, the binding result with human PSGL-1 on cells [4] is “binds”.

B4: PSG3 scFv (scFv)
scFv: QVQLVQSGAEVKKPGSSVRVSCKASGGSFSSYGIHWVQQAPGQGLEWMGRIIPVLRIRNYAQKFHDRVTIDADTSTGTAYMELSSLTSDDTAVYYCAGSRQGVAPTGYWGQGTMVTVSSGGGGSGGGGSGGGGSAQAVLTQPSSLSASPGASASLTCNLRSGIDVGTYRIYWYQQKPGSPPQYLLRYKSDSDKQQGSGVPSRFSGTKDASANAGILLISGLQSEDEADYYCMIWHSNGWVFGGGTKLTVLGAAAHHHHHH
notes: Human scFv from a phage display library, purified from E. coli periplasm on NiNTA and detected with anti-Myc; also called scFv PSG3
With B4, in the assay with human PSGL-1 on cells [4], the binding result was “binds”.

The values are drawn from US20070160601A1 (published 2007).
